{"source": "patent US20140065150A1", "about": "(AGGAMIN PHARMACEUTICALS, published 2014)", "biological_target": "T1, human sFlt-1 protein (Ig-like domains 1-3), amino acids Ser27 to Ile328, with carboxy-terminal poly-histidine … (human, UniProt P17948 27-328)", "T1 construct": "range 27-328; also called sFlt-1 (domains 1-3); Recombinant sFlt1 (d1-d3)", "T1 sequence (P17948 27-328)": "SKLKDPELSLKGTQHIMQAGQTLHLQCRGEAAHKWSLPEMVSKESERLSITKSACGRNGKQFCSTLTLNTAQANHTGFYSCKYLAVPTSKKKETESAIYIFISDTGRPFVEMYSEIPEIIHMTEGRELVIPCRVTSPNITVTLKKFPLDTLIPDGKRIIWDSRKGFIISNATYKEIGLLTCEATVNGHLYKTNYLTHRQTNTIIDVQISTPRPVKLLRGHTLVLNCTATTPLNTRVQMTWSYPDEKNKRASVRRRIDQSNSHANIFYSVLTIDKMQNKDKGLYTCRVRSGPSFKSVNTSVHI", "test": "SPR (FIG. 2 legend: ForteBio Octet), antibody immobilized, sFlt-1 (domains 1-3) in the liquid phase; apparent Kd", "description": "The apparent Kd of binding between purified monoclonal antibodies and sFlt1 was measured by surface plasmon resonance (SPR). (FIG. 2B). Antibodies were immobilized on the solid phase and sFlt-1 (domains 1-3) was in the liquid phase. There was no direct correlation between antibody affinity (as measured in a kinetic binding experiment) (FIG. 2B) and effectiveness (FIG. 2A) in the device. There was also no direct correlation with on-rates or off-rates and device effectiveness.", "data": [{"binder": "antibody 101 (antibody, V domains shown, Mouse monoclonal antibody raised against human sFlt-1 (Ig-like domains 1-3)) VH: QVQLKQSGPGLVQPSQSLSLTCTVSGFSLTNYGVHWIRQSPGKGLEWLGVIWSGGSIDYNAVFTSRLTITKDHSKSQVFFKVNSLESNDTAIYYCARNVGYRYDDGYVMDYWGQGTSVIVSS VL: SIVMTQTPKFLLVSAGDRVTITCKASQSVSIDVAWYQQKPGQSPKLLIYHASNRYTGVPDRFIGSRYGTDFTFTISTVQAEDLAVYFCQQNYDSPFTFGSGTKLELKR", "values": [{"measurement": "Kd", "value": 1.44, "unit": "nM"}]}]}
